Data as given in the DeepSol protein solubility set.

experiment: soluble on expression in E. coli; label from the status in PepcDB or PDB records

| Sequence | soluble on expression in E. coli |
| --- | --- |
| MDLFQAMRVYVKVVEAGSLTAAAQACSISTTMVGNHLRALEQRLGVSLLQRTTRRQRLTEFGTAYYERCLEVLGLVAESEQLAEQAQGDPSGTLRITAPLTFGSEVLAPALAGFSLRFPEVKLDLVLTNQRLDMIDNGFDIAIRLGNIPQSSPLIARLMQDYTLTICAAPSYLARHGTPAHPEDLGAHNCLAFSYPAGDEWRTAGTQWRMTGPEGEVLVDVDGSMVANTSAGLYQAACAGMGVVMLPDALVQRDLQEGRLVALLPGYHLPRRPMNLLYVQDRYRLPKVRSFVEYAMGLWGR | not soluble |
| MRLYRDRAVVLRQHKLGEADRIVTLLTRDHGLVRAVAKGVRRTRSKFGARLEPFAHIEVQLHPGRNLDIVTQVVSVDAFATDIVADYGRYTCGCAILETAERLAGEERAPAPALHRLTVGALRAVADGQRPRDLLLDAYLLRAMGIAGWAPALTECARCATPGPHRAFHIATGGSVCAHCRPAGSTTPPLGVVDLMSALYDGDWEAAEAAPQSARSHVSGLVAAHLQWHLERQLKTLPLVERFYQADRSVAERRAALIGQDIAGG | not soluble |
| MAMNGTITTWFKDKGFGFIKDENGDNRYFHVIKVANPDLIKKDAAVTFEPTTNNKGLSAYAVKVVPESKYIYIAGERLKLTSIKSYLVYSEEVPADTRIDKENTVLSVGVLMNSIRPKSVAEPDEIRSLKKLAITTFQGTTLIFSEDEIDVDATVKLLKVLEHHHHHH | soluble |
| MFEKGYVDENYIRVPKDRLFSFIVRVLTKLGVPEEDAKIVADNLVMADLRGVESHGVQRLKRYVDGIISGGVNLHPKIRVIREGPSYALIDGDEGLGQVVGYRSMKLAIKKAKDTGIGIVIARNSNHYGIAGYYALMAAEEGMIGISMTNSRPLVAPTGGIERILGTNPIALAAPTKDKPFLLDMATSVVPIGKLEVYRRKGKDIPEGWAINREGNITTKVEEVFNGGALLPLGGFGELLGGHKGYGLSLMVDILSGILSGGTWSKYVKNTSEKGSNVCHFFMVIDIEHFIPLEEFKEKISQMIEEIKSSRKHPEFERIWIHGEKGFLTMETRLKLGIPIYRKVLEELNEIAKRVGVEGL | soluble |
| YEGGWTQDKQWEREMNIAQEKYGPIFAKYAAMPIEEVAKDEHAMKMGSRMFATYCSICHGSDAKGALGFPNLADNEWRWGGDPQSIETTILGGRHAIMAAWGDILGEDGVKNVAAYVRTELAGLKLPEGTKADVEAGKQIFSVNCVACHGPEGKGTALVGAPNLTNPGAFIYGSSYAQLQQTIRHGRQGQMPAQEPYLGKEKVHILAAYI | not soluble |
| MKKRGLENHPQNRKKIFERFPRLTKLSEKNLFQICKTTLLNERKMKSIQNTIDELRKLSAGKSSEEVQRLKEMQKHSKMFGEIFGVYGATVGKPKPKEKEVKVPTKEMTFEEKRKLLETTFPNKVTPGQRAKARETLNFIANNPEIYAIASPQDPSSKAKTDPVSRPQLNIISSFSWPITSGSDWSPHGSEFNDLTAPRVGKLTPVPQWSDMKKSSLKLGTEDNFSKMSYDPAYSNTTQSQSVTTLYNETSTPYYDDSDLGTPLHTCVQ | not soluble |
| THALEPSKPLAHDEKPITIEVVSMDWKWFFIYPEQGIATVNEIAFPANTPVYFKVTSNSVMHSFFIPRLGSQIYAMAGMQTRLHLIANEPGTYDGICAEICGPGHSGMKFKAIATPDRAAFDQWVAKAKQSPNTMSDMAAFEKLAAPSEYNQVEYFSNVKPDLFADVINKFMAHGKSMDMTQPEGEHSAHEGMEGMDMSHAESAH | soluble |
| MSLFFHSDVLSVSELNAFAKSLLENHLAGLWIAGEVSNLTRAASGHYYFSLKDSRAQVRCAMFKGAAVRLAKPLKEGDHIEVSGKISIYEARGEFQITVNEVRLKGLGQLYEAYERLKAQLQAEGAFAAERKKPLPVRPQCIGIVTSLAAAALRDVVTTLKRRAPEIPVIVYPTPVQGAGSELQIAQAIKTASQRAECDVLIVCRGGGSIEDLWAFNEEPVVRAIESCTVPVVSGVGHETDFTLADFVADMRAPTPTGAAELVSPNRQESLHRLAQAQCRLKTVLEQRYFDASQKLDWLARQIRHPRQKLDEQRASIGKLAQTLSYSMTQNVRTHTARFERQTQALKHCRPDVSVCKKNIDRFQTALSHAFHQLLTHRRQSLTAQAALLEAVSPQHILERGFSVVKNTRGQVIRNADVLKQGQKLHIIFADGETDVRVSKEQGQQDLFDCIEGHHHHHH | not soluble |
| SLFLLDPFSGISGDMFLSAMIDFVDKEDFINTIKKVIDVEIEIKKVKKCHILANKVNIIPKCINCNANTYKDIKNVIKSSDIQEDIKITALEILKILAEAESKVHNVDVENVHFHEVGNYDTIADIVGAAYIINKLNLKNNCLYKPINVGNGFVRTEHGLLPVPAPATAEILKGLKIFFSDINEELTTPTGSAIIKYINPKLAKGAFIIKEVSYGAGDKDLNLLNALRVFRVEDIKREDIVLLETNVDDISAEILGYLYEVLDGKVRDLHFIPTYMKKNRPAYTIRAIVDRDIAEEVAKIIMRETGSLGVRIFDIERITADREFKTIKLFDESVRLKVGRVNDEIISQKPEFEDLKNIAKKYGIPLKDLYKLINISQIKN | soluble |
| MANDDLQQRLDKGMYGTPLVNPEEQHKYMGTFRERCRLSMTVAEMKDAQNQKHLLEELAKHPEVTVLLNGEISSDLQSTYIKLLNQHGANFKIVNNFVENNPDSLGLLLAEKHAVDEPVIDVTEKYPQATETPKEEPTAKKSFWQKLFHS | not soluble |
| MAHHHHHHMQMRRDALGNGKALEFAKELSLAYKQVIQATQHIGKQRQALTGCTDLSVKTREWAAAEHDIAGALEKYGAAPYWVEQRGWRPGRLQSFEAAHSRASSGTEVSYLCSRLRGYVKAAFTAHVTKPPKLNASEVDVAELLTFFTGSGDGALVVEVALAKFFVVENMHVRAPELWVMNYLLHCYGVEEGIMLAHEADVVDGGFKQQGGGAFEEQFLIQKNIWAVSQVLVPHCYAVTRCDEATAKAGVEACVRCEGTEGQGTEGAFPTWPGTPPASLPPAYRLARSVNDYGKEAGEDKTSRIIGELDGVIYDASARQVLLVLEAKQNIDVCKAFKQKERLYNALDATRKTLSQASQGAALTAVQLSAENETKTATTTAAGRNATPAAEAACAASTKLHTEPVVLRFFVTPTTAAEAARENFSVNGCSLVTGVGAEPAANFQDMRNSGDMASAAAPPVRSKAAAARLATAGNPFFTQDNFAAFFGATASAVQGDSTAPSPTPTRSDSMTPRHLGRDQRWIYLTSLSTGNSPGARTTVPAPGGTIHMVELTLVKTACNFVAEAYDSYFQISTLPPTATPALQSLVSAMRVCSAYAPETEPMALFHLFLELPPQECISARAETAAVSRSDPCEYVLHLFRHDVRCKDGAAALEQVWLRENFIDGLVLSEHSFI | not soluble |
| MSLIMITAEMVPPDLLIKRLAIYLKENVKTVDPPEWALLAKTASFKERVPDNAEDWWYIRAASLLRKLYVNSIIGIEKTRTIYGGRKRRGTRPEKFVKAPGHVNRLIFQQLEKAGLVQKIKNKGRSLSPKGRSLLDKLALEIFKELAENNTSLKVYLELEHHHHHH | soluble |
| MSLSDFLILSDPDLDTLGITTDEIQTALEAAIRAQIRATVHVAPKSALLPGDGRYVMTTLATGNSPALTVVKSVMVSPDNPARGLPGTEGVLLVQDSETGQLRALMQAGWITRMRTAGLSALVARRLGDPAARVVAFIGAGAQARAHLAALCDLFPLQRAVILGRGAENIARLSAAARARGLQAEIADNPHQAIADADLVVSSVTLDHQMTPFLDARWLKPGAFASLTDTGLPWQPDGMAALDPLYIDDLAQEAANPRPMIDPARVGGDLAALLGEDLHSTNVNRHDPSRRAGFLFRGPAIADFALAALALHRAQSLGAGRDTAWPDATREGHHHHHH | soluble |
| MAHHHHHHMMAHRCAFQTIASPALTQREVEFTKSAWIAGLRPDQRGAQQLREVNVDFPLLSRDVSCVRCGGTIVTAAIACELVEPFPCRPKHGIIDFSVRQPYTERDSSAKTAELKKLTAFLERLIKGGGVVDTEGLCVLPGRRVWSISVDVTVLNDEGNVTDVAVWATVAVLLHYRRPELTIRGDSVILHPTHERDPVPLSIHHTPLSFSFAITMAPGDRNKLARGRRDSQEALEVVVDPTFAEATAASSSVVVAVNAEGQVCSVSKSEGSCIHLNEVNHCMETASLLAPHILSLIRDAMAAHDKRRQEVLKRMFLWAQKRSGVTSEATEPEPAKKLKTET | not soluble |
